Test [1] has as its target T1, SARS-CoV-2 receptor-binding domain (amino acids 330-532), prototypical Wuhan/Victoria (SARS-CoV-2 (Wuhan/Victoria), UniProt P0DTC2 330-532). As to the kind of experiment: SPR, VHH analyte, biotinylated RBD ligand.
The target of test [2] is Spike protein on live SARS-CoV-2 Victoria strain (SARS-CoV-2 (Victoria), UniProt P0DTC2 14-1273). As to the kind of experiment: cell-based or functional assay.
The target in test [3] is T1, SARS-CoV-2 receptor-binding domain …. The test is described as follows: SPR, VHH analyte over immobilised RBD.
For test [4] the target is unchanged. As to the kind of experiment: X-ray crystallography.
The target is the same in test [5]. The test is described as follows: SPR. In general terms: In SPR one partner is held on a chip, and binding of the other changes the refractive index at the surface.
For test [6] the target is unchanged. As to the kind of experiment: SPR, RBD binding kinetics.
Test [7] concerns the target SARS-CoV-2 receptor-binding domain fused to hIgG1 Fc (SARS-CoV-2 (Wuhan/Victoria), UniProt P0DTC2 330-532). As to the kind of experiment: SPR, VHH analyte, RBD-Fc ligand.
In test [8] the target is T1, SARS-CoV-2 receptor-binding domain …. The test is described as follows: SPR, RBD analyte, VHH_H6-Fc ligand.

Consider five molecules from patent US20230374116A1 (ROSALIND FRANKLIN INSTITUTE, published 2023).

B1: C5 (VHH)
VHH: QVQLVESGGGSVQAGGSLTLSCVASGVTLGRHAIGWFRQAPGKERERVSCIRTFDGITSYVESTKGRFTISSNNAMNTVYLQMNSLKPEDTAVYFCALGVTAACSDNPYFWGQGTQVTVSS
notes: also called VHH C5
Turning to B1, the Kd in test [1] and in test [3] was 0.099 nM in each case. The T1/2 in test [1] and in test [3] was 12 min throughout. The “IC50, neutralisation of SARS-CoV2, micro-titre neutralisation assay” value in test [2] worked out at 32 nM.

B2: A8 (VHH)
VHH: QVQLVESGGGLVQAGGSLRLSCAASGGTFSTAAMGWFRQAPGEERECVASIGWRGVRTWYADSVKGRFTISRDNPQNTVYLQMNNLKSGDTAVYYCAASVGNYGLPWAHFEYDFWGQGIQVTVSS
notes: also called 2_A8
On to B2, for which the binding result in test [4] is recorded as “binds”.

B3: F2-SUMO-C5-Fc (Fc fusion)
chain: QVQLVESGGGLVQAGGSLRLACIASGRTFHSYVMAWFRQAPGKEREFVAAISWSSTPTYYGESVKGRFTISRDNAKNTVYLQMNRLKPEDTAVYFCAADRGESYYYTRPTEYEFWGQGTQVTVSSGSGSGSDSEVNQEAKPEVKPEVKPETHINLKVSDGSSEIFFKIKKTTPLRRLMEAFAKRQGKEMDSLRFLYDGIRIQADQTPEDLDMEDNDIIEAHREQIGSGSGSQVQLVESGGGSVQAGGSLTLSCVASGVTLGRHAIGWFRQAPGKERERVSCIRTFDGITSYVESTKGRFTISSNNAMNTVYLQMNSLKPEDTAVYFCALGVTAACSDNPYFWGQGTQVTVSS
notes: also called F2-GSGSGS-SUMO-GSGSGS-C5
As for B3, in test [5], the “fold increase in affinity on combining the VHHs” value is roughly 85 fold. In test [6], the affinity, expressed as Kd, was 0.00075 nM; the T1/2 came to 660 min; the koff – broadly, the first-order rate constant of dissociation – stood at 1.7e-05 s⁻¹; the kon (as a rule, the second-order rate constant of association) was found to be 2.3e+07 M⁻¹ s⁻¹.

B4: VHH_H6 (VHH)
VHH: QVQLVESGGGLVQPGGSLTLSCVASESSLAPYRVAWFRQAPGKEREGVSCISRDAHPTSTYYTASVKGRFTMSRDNAKNTVYLQMNSLKPSDTAVYYCATDLGGYCSDSNYPRAWWGQGTQVTVSS
Turning to B4, in test [7], the Kd – broadly, the concentration at which binding is half-saturated – came out at 0.472 nM and the T1/2 came to 31 min.

B5: VHH_H6-Fc (Fc fusion)
chain: B4 VHH
Consider B5, for which, in test [8], the affinity, expressed as Kd, was 0.261 nM. In other words, the sub-nanomolar range.
